Source: publication PMC11604724 (MedComm, 2024)

Assays:
[1] = target: SARS‐CoV‐2 N‐terminal domain (NTD) protein (SARS-CoV-2 WT, UniProt P0DTC2, N-linked glycans (complex glycosylation, migrates at 40-70 kDa)); test: ELISA; conditions: both partners purified
[2] = target: PNGase F‐treated NTD protein (SARS-CoV-2 WT, UniProt P0DTC2, N-linked glycans removed with PNGase F (nearly complete deglycosylation)); test: ELISA; conditions: both partners purified
[3] = target: Horseradish peroxidase (HRP)‐labeled NTD protein (SARS-CoV-2, WT assumed, UniProt P0DTC2, horseradish peroxidase (HRP) label); test: ELISA; conditions: both partners purified
[4] = target: SARS‐CoV‐2 (WT) spike expressed on HEK293T cells (SARS-CoV-2, UniProt P0DTC2); test: flow cytometry on cells; conditions: one partner purified

Measured: binding result

B1: mAb 3711 (antibody, V domains shown)
VH: EVQLVESGGGLVKPGRSLRLSCAASGFTFSDYYMSWIRQAPGKGLEWVSYISSSGSTIYYADSVRGRFTISRDNAKNSLYLQMNTLRAEDTAVYYCARGGWELRSLAGGYYGMDVWGQGTTVTVSS
VL: DIVMTQTPFTLSASVGDRVTITCRASQGIRNDLGWYQQKPGKAPKCLIYAASSLLSGVPSRFSGSGSGTEFTLTISSLQPEDFATYYCLQHNSYPWTFGQGTKLEIK
binds: [1] | [2] | [3] | [4]
